Test results: the supplement of paper PMC5998384

Assays:
HeLa Kyoto [1] = assay: solubility change mitosis vs G1/S (difference of NP-40 vs SDS log2 ratios) (log2 ratio difference); higher = more soluble in mitosis
HeLa Kyoto [2] = assay: thermal stability score vs G1/S (z-score of summed log2 fold changes over temperatures); higher = more thermally stable than in G1/S
HeLa Kyoto [3] = assay: melting temperature (median over replicates), in situ; higher = more thermally stable
HeLa Kyoto [4] = assay: solubility in G1/S (NP-40 vs SDS abundance) (log2 ratio); higher = more soluble; details: cell cycle stage: G1/S
[5] = cell cycle stage: early G1 (4.5 h after nocodazole release)
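For melting temperature (median over replicates), in situ in this document: HeLa Kyoto cells synchronized by double thymidine or nocodazole block, proteins quantified by TMT10plex mass spectrometry, three independent biological replicates.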
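For solubility change mitosis vs G1/S (difference of NP-40 vs SDS log2 ratios) in this document: synchronized HeLa Kyoto cells (double thymidine block for G1/S, nocodazole release for mitosis), protein amounts in NP-40 versus SDS lysates quantified by mass spectrometry, three biological replicates.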
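For solubility in G1/S (NP-40 vs SDS abundance) in this document: HeLa Kyoto cells arrested at G1/S by double thymidine block, proteins quantified by TMT10plex mass spectrometry in mild NP-40 versus SDS extracts, three biological replicates.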
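For thermal stability score vs G1/S (z-score of summed log2 fold changes over temperatures) in this document: synchronized HeLa Kyoto cells, proteins quantified by TMT10plex mass spectrometry, three biological replicates, mitosis taken 0.5 h after nocodazole release, G1/S directly after double thymidine block.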

Sequence of YBX3 (chain, as listed by the source): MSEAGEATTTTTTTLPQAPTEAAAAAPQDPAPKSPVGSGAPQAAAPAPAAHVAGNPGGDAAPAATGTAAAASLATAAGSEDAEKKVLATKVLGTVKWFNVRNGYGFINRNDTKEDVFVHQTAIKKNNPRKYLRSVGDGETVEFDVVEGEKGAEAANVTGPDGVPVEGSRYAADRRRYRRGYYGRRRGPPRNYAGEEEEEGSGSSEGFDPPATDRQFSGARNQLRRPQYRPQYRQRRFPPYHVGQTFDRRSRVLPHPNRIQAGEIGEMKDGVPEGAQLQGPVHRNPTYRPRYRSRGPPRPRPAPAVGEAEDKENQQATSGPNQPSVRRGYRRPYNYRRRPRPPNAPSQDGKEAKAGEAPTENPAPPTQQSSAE
Sequence of MMTAG2 (chain, as listed by the source): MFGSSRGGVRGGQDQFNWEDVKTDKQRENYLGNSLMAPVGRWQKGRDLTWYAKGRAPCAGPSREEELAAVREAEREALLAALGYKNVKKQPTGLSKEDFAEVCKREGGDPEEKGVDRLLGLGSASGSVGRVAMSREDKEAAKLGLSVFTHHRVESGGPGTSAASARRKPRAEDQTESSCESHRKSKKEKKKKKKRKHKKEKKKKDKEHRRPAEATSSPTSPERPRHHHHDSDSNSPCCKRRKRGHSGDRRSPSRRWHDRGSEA

Substance | solubility change mitosis (log2) (HeLa Kyoto [1]) | thermal stability score (HeLa Kyoto [2]; [5]) | thermal stability score (HeLa Kyoto [2]; cell cycle stage: mitosis) | melting temperature (HeLa Kyoto [3]; cell cycle stage: G1/S) | melting temperature (HeLa Kyoto [3]; cell cycle stage: mitosis) | solubility in G1/S (log2) (HeLa Kyoto [4])
MATEQRPFHLVVFGASGFTGQFVTEEVAREQVDPERSSRLPWAVAGRSREKLQRVLEKAALKLGRPTLSSEVGIIICDIANPASLDEMAKQATVVLNCVGPYRFYGEPVIKACIENGASCIDISGEPQFLELMQLKYHEKAADKGVYIIGSSGFDSIPADLGVIYTRNKMNGTLTAVESFLTIHSGPEGLSIHDGTWKSAIYGFGDQSNLRKLRNVSNLKPVPLIGPKLKRRWPISYCRELKGYSIPFMGSDVSVVRRTQRYLYENLEESPVQYAAYVTVGGITSVIKLMFAGLFFLFFVRFGIGRQLLIKFPWFFSFGYFSKQGPTQKQIDAASFTLTFFGQGYSQGTGTDKNKPNIKICTQVKGPEAGYVATPIAMVQAAMTLLSDASHLPKAGGVFTPGAAFSKTKLIDRLNKHGIEFSVISSSEV [SCCPDH] | 0.0063 | 0.42 | -2.32 | 53.2 °C | 54 °C | -0.086
MPTESASCSTARQTKQKRKSHSLSIRRTNSSEQERTGLPRDMLEGQDSKLPSSVRSTLLELFGQIEREFENLYIENLELRREIDTLNERLAAEGQAIDGAELSKGQLKTKASHSTSQLSQKLKTTYKASTSKIVSSFKTTTSRAACQLVKEYIGHRDGIWDVSVAKTQPVVLGTASADHTALLWSIETGKCLVKYAGHVGSVNSIKFHPSEQLALTASGDQTAHIWRYAVQLPTPQPVADTSISGEDEVECSDKDEPDLDGDVSSDCPTIRVPLTSLKSHQGVVIASDWLVGGKQAVTASWDRTANLYDVETSELVHSLTGHDQELTHCCTHPTQRLVVTSSRDTTFRLWDFRDPSIHSVNVFQGHTDTVTSAVFTVGDNVVSGSDDRTVKVWDLKNMRSPIATIRTDSAINRINVCVGQKIIALPHDNRQVRLFDMSGVRLARLPRSSRQGHRRMVCCSAWSEDHPVCNLFTCGFDRQAIGWNINIPALLQEK [WDR37] | -0.117 | -0.8 | -0.627 | 53.3 °C |  | 0.0178
MPYEIKKVFASLPQVERGVSKIIGGDPKGNNFLYTNGKCVILRNIDNPALADIYTEHAHQVVVAKYAPSGFYIASGDVSGKLRIWDTTQKEHLLKYEYQPFAGKIKDIAWTEDSKRIAVVGEGREKFGAVFLWDSGSSVGEITGHNKVINSVDIKQSRPYRLATGSDDNCAAFFEGPPFKFKFTIGDHSRFVNCVRFSPDGNRFATASADGQIYIYDGKTGEKVCALGGSKAHDGGIYAISWSPDSTHLLSASGDKTSKIWDVSVNSVVSTFPMGSTVLDQQLGCLWQKDHLLSVSLSGYINYLDRNNPSKPLHVIKGHSKSIQCLTVHKNGGKSYIYSGSHDGHINYWDSETGENDSFAGKGHTNQVSRMTVDESGQLISCSMDDTVRYTSLMLRDYSGQGVVKLDVQPKCVAVGPGGYAVVVCIGQIVLLKDQRKCFSIDNPGYEPEVVAVHPGGDTVAIGGVDGNVRLYSILGTTLKDEGKLLEAKGPVTDVAYSHDGAFLAVCDASKVVTVFSVADGYSENNVFYGHHAKIVCLAWSPDNEHFASGGMDMMVYVWTLSDPETRVKIQDAHRLHHVSSLAWLDEHTLVTTSHDASVKEWTITY [WDR1] | -0.128 | -0.713 | -2.84 | 53.7 °C | 52.3 °C | -0.153
MAAGVDCGDGVGARQHVFLVSEYLKDASKKMKNGLMFVKLVNPCSGEGAIYLFNMCLQQLFEVKVFKEKHHSWFINQSVQSGGLLHFATPVDPLFLLLHYLIKADKEGKFQPLDQVVVDNVFPNCILLLKLPGLEKLLHHVTEEKGNPEIDNKKYYKYSKEKTLKWLEKKVNQTVAALKTNNVNVSSRVQSTAFFSGDQASTDKEEDYIRYAHGLISDYIPKELSDDLSKYLKLPEPSASLPNPPSKKIKLSDEPVEAKEDYTKFNTKDLKTEKKNSKMTAAQKALAKVDKSGMKSIDTFFGVKNKKKIGKV [RNASEH2B] | -0.0965 | -0.0838 | 0.982 | 48.8 °C | 49.7 °C | 0.517
MGEFNEKKTTCGTVCLKYLLFTYNCCFWLAGLAVMAVGIWTLALKSDYISLLASGTYLATAYILVVAGTVVMVTGVLGCCATFKERRNLLRLYFILLLIIFLLEIIAGILAYAYYQQLNTELKENLKDTMTKRYHQPGHEAVTSAVDQLQQEFHCCGSNNSQDWRDSEWIRSQEAGGRVVPDSCCKTVVALCGQRDHASNIYKVEGGCITKLETFIQEHLRVIGAVGIGIACVQVFGMIFTCCLYRSLKLEHY [CD151] | 0.0099 | 0.401 | -1.63 | 60 °C | 61.3 °C | -0.288
YBX3 | -0.0607 | -3.49 | -8.21 | 54 °C | 53.8 °C | 0.366
MSRSYNDELQFLEKINKNCWRIKKGFVPNMQVEGVFYVNDALEKLMFEELRNACRGGGVGGFLPAMKQIGNVAALPGIVHRSIGLPDVHSGYGFAIGNMAAFDMNDPEAVVSPGGVGFDINCGVRLLRTNLDESDVQPVKEQLAQAMFDHIPVGVGSKGVIPMNAKDLEEALEMGVDWSLREGYAWAEDKEHCEEYGRMLQADPNKVSARAKKRGLPQLGTLGAGNHYAEIQVVDEIFNEYAAKKMGIDHKGQVCVMIHSGSRGLGHQVATDALVAMEKAMKRDKIIVNDRQLACARIASPEGQDYLKGMAAAGNYAWVNRSSMTFLTRQAFAKVFNTTPDDLDLHVIYDVSHNIAKVEQHVVDGKERTLLVHRKGSTRAFPPHHPLIAVDYQLTGQPVLIGGTMGTCSYVLTGTEQGMTETFGTTCHGAGRALSRAKSRRNLDFQDVLDKLADMGIAIRVASPKLVMEEAPESYKNVTDVVNTCHDAGISKKAIKLRPIAVIKG [RTCB] | 0.0881 | -2.97 | -3.42 | 53 °C | 52.4 °C | 0.171
MLRCLYHWHRPVLNRRWSRLCLPKQYLFTMKLQSPEFQSLFTEGLKSLTELFVKENHELRIAGGAVRDLLNGVKPQDIDFATTATPTQMKEMFQSAGIRMINNRGEKHGTITARLHEENFEITTLRIDVTTDGRHAEVEFTTDWQKDAERRDLTINSMFLGFDGTLFDYFNGYEDLKNKKVRFVGHAKQRIQEDYLRILRYFRFYGRIVDKPGDHDPETLEAIAENAKGLAGISGERIWVELKKILVGNHVNHLIHLIYDLDVAPYIGLPANASLEEFDKVSKNVDGFSPKPVTLLASLFKVQDDVTKLDLRLKIAKEEKNLGLFIVKNRKDLIKATDSSDPLKPYQDFIIDSREPDATTRVCELLKYQGEHCLLKEMQQWSIPPFPVSGHDIRKVGISSGKEIGALLQQLREQWKKSGYQMEKDELLSYIKKT [TRNT1] | -0.109 | 1.75 | 1.59 | 50.9 °C | 50.2 °C | 0.146
MAELRVLVAVKRVIDYAVKIRVKPDRTGVVTDGVKHSMNPFCEIAVEEAVRLKEKKLVKEVIAVSCGPAQCQETIRTALAMGADRGIHVEVPPAEAERLGPLQVARVLAKLAEKEKVDLVLLGKQAIDDDCNQTGQMTAGFLDWPQGTFASQVTLEGDKLKVEREIDGGLETLRLKLPAVVTADLRLNEPRYATLPNIMKAKKKKIEVIKPGDLGVDLTSKLSVISVEDPPQRTAGVKVETTEDLVAKLKEIGRI [ETFB] | 0.0272 | -1.74 | -0.806 | 54 °C | 54.2 °C | 0.362
MAKAKKVGARRKASGAPAGARGGPAKANSNPFEVKVNRQKFQILGRKTRHDVGLPGVSRARALRKRTQTLLKEYKERDKSNVFRDKRFGEYNSNMSPEEKMMKRFALEQQRHHEKKSIYNLNEDEELTHYGQSLADIEKHNDIVDSDSDAEDRGTLSAELTAAHFGGGGGLLHKKTQQEGEEREKPKSRKELIEELIAKSKQEKRERQAQREDALELTEKLDQDWKEIQTLLSHKTPKSENRDKKEKPKPDAYDMMVRELGFEMKAQPSNRMKTEAELAKEEQEHLRKLEAERLRRMLGKDEDENVKKPKHMSADDLNDGFVLDKDDRRLLSYKDGKMNVEEDVQEEQSKEASDPESNEEEGDSSGGEDTEESDSPDSHLDLESNVESEEENEKPAKEQRQTPGKGLISGKERAGKATRDELPYTFAAPESYEELRSLLLGRSMEEQLLVVERIQKCNHPSLAEGNKAKLEKLFGFLLEYVGDLATDDPPDLTVIDKLVVHLYHLCQMFPESASDAIKFVLRDAMHEMEEMIETKGRAALPGLDVLIYLKITGLLFPTSDFWHPVVTPALVCLSQLLTKCPILSLQDVVKGLFVCCLFLEYVALSQRFIPELINFLLGILYIATPNKASQGSTLVHPFRALGKNSELLVVSAREDVATWQQSSLSLRWASRLRAPTSTEANHIRLSCLAVGLALLKRCVLMYGSLPSFHAIMGPLQALLTDHLADCSHPQELQELCQSTLTEMESQKQLCRPLTCEKSKPVPLKLFTPRLVKVLEFGRKQGSSKEEQERKRLIHKHKREFKGAVREIRKDNQFLARMQLSEIMERDAERKRKVKQLFNSLATQEGEWKALKRKKFKK [NOP14] | 0.737 | 0.586 | 1.66 | 49.2 °C | 50.4 °C | -1.66
MTTSTLQKAIDLVTKATEEDKAKNYEEALRLYQHAVEYFLHAIKYEAHSDKAKESIRAKCVQYLDRAEKLKDYLRSKEKHGKKPVKENQSEGKGSDSDSEGDNPEKKKLQEQLMGAVVMEKPNIRWNDVAGLEGAKEALKEAVILPIKFPHLFTGKRTPWRGILLFGPPGTGKSYLAKAVATEANNSTFFSVSSSDLMSKWLGESEKLVKNLFELARQHKPSIIFIDEVDSLCGSRNENESEAARRIKTEFLVQMQGVGNNNDGTLVLGATNIPWVLDSAIRRRFEKRIYIPLPEEAARAQMFRLHLGSTPHNLTDANIHELARKTEGYSGADISIIVRDSLMQPVRKVQSATHFKKVCGPSRTNPSMMIDDLLTPCSPGDPGAMEMTWMDVPGDKLLEPVVCMSDMLRSLATTRPTVNADDLLKVKKFSEDFGQES [VPS4A] | -0.128 | 1.11 | 1.47 | 48.6 °C | 49.7 °C | 0.393
MFRLNSLSALAELAVGSRWYHGGSQPIQIRRRLMMVAFLGASAVTASTGLLWKRAHAESPPCVDNLKSDIGDKGKNKDEGDVCNHEKKTADLAPHPEEKKKKRSGFRDRKVMEYENRIRAYSTPDKIFRYFATLKVISEPGEAEVFMTPEDFVRSITPNEKQPEHLGLDQYIIKRFDGKKISQEREKFADEGSIFYTLGECGLISFSDYIFLTTVLSTPQRNFEIAFKMFDLNGDGEVDMEEFEQVQSIIRSQTSMGMRHRDRPTTGNTLKSGLCSALTTYFFGADLKGKLTIKNFLEFQRKLQHDVLKLEFERHDPVDGRITERQFGGMLLAYSGVQSKKLTAMQRQLKKHFKEGKGLTFQEVENFFTFLKNINDVDTALSFYHMAGASLDKVTMQQVARTVAKVELSDHVCDVVFALFDCDGNGELSNKEFVSIMKQRLMRGLEKPKDMGFTRLMQAMWKCAQETAWDFALPKQ [MICU1] | -0.00566 | 1.14 | 1.13 | 52.2 °C | 51.3 °C | -0.299
MAAAGPSTRASSAAAAAALSRRGRRGRCDETAAAKTGAPGPASGPSLLVLSPPLLQPPLPPRPEESGCAGCLEPPGEAAALPCGHSLCRGCAQRAADAAGPGCPRCRARGPGWARRRARDDGQADSEVLGECARRSQPERCRPRRDGGAAAAGPRPEQEPRAAPAEPDFIFRAPIKLSKPGELREEYESLRKLREEKLQEEKPSEDQIHKLLPEDTETGKRKMDEQKKRDEPLVLKTNLERCPARLSDSENEEPSRGQMTQTHRSAFVSKNNSYSLAFLAGKLNSKVERSQSCSDTAQERAKSRVRAVPGNKAKVTTMTPASNPIIGVLLSTQNNRCVSAPDLTIEKRLPFSSLSSLASLHKPERSVSPESNDSISEELNHFKPIVCSPCTPPKRLPDGRVLSPLIIKSTPRNLNRSLQKQTSYEASPRILKKWEQIFQERQIKKTLSKATLTSLAPEMGEELLGSEGIHSSKEKPLVAVNTRLSGGQVLSEYTGPTSADLDHFPSVSQTKAEQDSDNKSSTEIPLETCCSSELKGGGSGTSLEREQFEGLGSTPDAKLDKTCISRAMKITTVNSVLPQNSVLGGVLKTKQQLKTLNHFDLTNGVLVESLSEEPLPSLRRGRKRHCKTKHLEQNGSLKKLRQTSGEVGLAPTDPVLREMEQKLQQEEEDRQLALQLQRMFDNERRTVSRRKGSVDQYLLRSSNMAGAK [RNF169] | 0.36 | 0.359 | 0.101 |  | 51.8 °C | -0.158
MMTAG2 | 0.48 | -3.08 | -5.63 | 53 °C | 51.3 °C | -1.03
